Source: patent US20230002496A1 (STAIDSON BEIJING BIOPHARMACEUTICALS, published 2023)

T1: human GM-CSFRα, full length on cells (human, UniProt P15509 23-400)
T1 sequence: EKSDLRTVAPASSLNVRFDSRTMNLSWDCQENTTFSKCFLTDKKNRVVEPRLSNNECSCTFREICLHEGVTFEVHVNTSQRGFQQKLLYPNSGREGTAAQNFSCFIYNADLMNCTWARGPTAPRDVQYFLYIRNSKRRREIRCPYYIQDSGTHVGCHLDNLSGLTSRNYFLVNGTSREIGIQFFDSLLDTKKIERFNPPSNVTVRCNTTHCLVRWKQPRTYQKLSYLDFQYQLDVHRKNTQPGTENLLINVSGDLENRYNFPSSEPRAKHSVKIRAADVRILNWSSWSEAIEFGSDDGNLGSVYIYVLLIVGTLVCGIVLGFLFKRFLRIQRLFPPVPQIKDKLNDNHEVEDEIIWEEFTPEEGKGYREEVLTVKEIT


Target: T1, human GM-CSFRα, full length on cells
Assay: cell-based or functional assay

Binder	IC50, TF-1 cell proliferation [µg/mL]
E35-scFv LQ27I (scFv, V domains shown) VH: QMQLVQSGAEVKKPGASVKVSCKVSGYTLTELSIHWVRQAPGKGLEWMGGFDPEDGETIYAQKFQGRVTMTGDTSTDTAYLELSSLRSEDTALYYCATGRYTSLATTYGFDYWGQGTLVTVSS VL: EIVMTQSPATLSLSPGERATLSCRASISVSSYLAWYQQKPGQAPRLLIYGASSRATGIPDRFSGSGSGTDFTLTISRLEPEDFAVYYCQQYDNWPYTFGQGTKLEIK	0.105
E35-scFv LS31H (scFv, V domains shown) VH: QMQLVQSGAEVKKPGASVKVSCKVSGYTLTELSIHWVRQAPGKGLEWMGGFDPEDGETIYAQKFQGRVTMTGDTSTDTAYLELSSLRSEDTALYYCATGRYTSLATTYGFDYWGQGTLVTVSS VL: EIVMTQSPATLSLSPGERATLSCRASQSVSHYLAWYQQKPGQAPRLLIYGASSRATGIPDRFSGSGSGTDFTLTISRLEPEDFAVYYCQQYDNWPYTFGQGTKLEIK	0.106
E35-scFv LQ27F (scFv, V domains shown) VH: QMQLVQSGAEVKKPGASVKVSCKVSGYTLTELSIHWVRQAPGKGLEWMGGFDPEDGETIYAQKFQGRVTMTGDTSTDTAYLELSSLRSEDTALYYCATGRYTSLATTYGFDYWGQGTLVTVSS VL: EIVMTQSPATLSLSPGERATLSCRASFSVSSYLAWYQQKPGQAPRLLIYGASSRATGIPDRFSGSGSGTDFTLTISRLEPEDFAVYYCQQYDNWPYTFGQGTKLEIK	0.113
E35-scFv LQ27V (scFv, V domains shown) VH: QMQLVQSGAEVKKPGASVKVSCKVSGYTLTELSIHWVRQAPGKGLEWMGGFDPEDGETIYAQKFQGRVTMTGDTSTDTAYLELSSLRSEDTALYYCATGRYTSLATTYGFDYWGQGTLVTVSS VL: EIVMTQSPATLSLSPGERATLSCRASVSVSSYLAWYQQKPGQAPRLLIYGASSRATGIPDRFSGSGSGTDFTLTISRLEPEDFAVYYCQQYDNWPYTFGQGTKLEIK	0.12
E35-scFv LS31Q (scFv, V domains shown) VH: QMQLVQSGAEVKKPGASVKVSCKVSGYTLTELSIHWVRQAPGKGLEWMGGFDPEDGETIYAQKFQGRVTMTGDTSTDTAYLELSSLRSEDTALYYCATGRYTSLATTYGFDYWGQGTLVTVSS VL: EIVMTQSPATLSLSPGERATLSCRASQSVSQYLAWYQQKPGQAPRLLIYGASSRATGIPDRFSGSGSGTDFTLTISRLEPEDFAVYYCQQYDNWPYTFGQGTKLEIK	0.117
E35-scFv LQ27T (scFv, V domains shown) VH: QMQLVQSGAEVKKPGASVKVSCKVSGYTLTELSIHWVRQAPGKGLEWMGGFDPEDGETIYAQKFQGRVTMTGDTSTDTAYLELSSLRSEDTALYYCATGRYTSLATTYGFDYWGQGTLVTVSS VL: EIVMTQSPATLSLSPGERATLSCRASTSVSSYLAWYQQKPGQAPRLLIYGASSRATGIPDRFSGSGSGTDFTLTISRLEPEDFAVYYCQQYDNWPYTFGQGTKLEIK	0.113
E35-scFv LS31P (scFv, V domains shown) VH: QMQLVQSGAEVKKPGASVKVSCKVSGYTLTELSIHWVRQAPGKGLEWMGGFDPEDGETIYAQKFQGRVTMTGDTSTDTAYLELSSLRSEDTALYYCATGRYTSLATTYGFDYWGQGTLVTVSS VL: EIVMTQSPATLSLSPGERATLSCRASQSVSPYLAWYQQKPGQAPRLLIYGASSRATGIPDRFSGSGSGTDFTLTISRLEPEDFAVYYCQQYDNWPYTFGQGTKLEIK	0.139

Continued, values first:

IC50, TF-1 cell proliferation [µg/mL]	Binder
0.142	E35-scFv LQ27C (scFv, V domains shown) VH: QMQLVQSGAEVKKPGASVKVSCKVSGYTLTELSIHWVRQAPGKGLEWMGGFDPEDGETIYAQKFQGRVTMTGDTSTDTAYLELSSLRSEDTALYYCATGRYTSLATTYGFDYWGQGTLVTVSS VL: EIVMTQSPATLSLSPGERATLSCRASCSVSSYLAWYQQKPGQAPRLLIYGASSRATGIPDRFSGSGSGTDFTLTISRLEPEDFAVYYCQQYDNWPYTFGQGTKLEIK
0.135	E35-scFv LQ27E (scFv, V domains shown) VH: QMQLVQSGAEVKKPGASVKVSCKVSGYTLTELSIHWVRQAPGKGLEWMGGFDPEDGETIYAQKFQGRVTMTGDTSTDTAYLELSSLRSEDTALYYCATGRYTSLATTYGFDYWGQGTLVTVSS VL: EIVMTQSPATLSLSPGERATLSCRASESVSSYLAWYQQKPGQAPRLLIYGASSRATGIPDRFSGSGSGTDFTLTISRLEPEDFAVYYCQQYDNWPYTFGQGTKLEIK
0.069	E35-scFv LS31R (scFv, V domains shown) VH: QMQLVQSGAEVKKPGASVKVSCKVSGYTLTELSIHWVRQAPGKGLEWMGGFDPEDGETIYAQKFQGRVTMTGDTSTDTAYLELSSLRSEDTALYYCATGRYTSLATTYGFDYWGQGTLVTVSS VL: EIVMTQSPATLSLSPGERATLSCRASQSVSRYLAWYQQKPGQAPRLLIYGASSRATGIPDRFSGSGSGTDFTLTISRLEPEDFAVYYCQQYDNWPYTFGQGTKLEIK
0.078	E35-scFv LS31A (scFv, V domains shown) VH: QMQLVQSGAEVKKPGASVKVSCKVSGYTLTELSIHWVRQAPGKGLEWMGGFDPEDGETIYAQKFQGRVTMTGDTSTDTAYLELSSLRSEDTALYYCATGRYTSLATTYGFDYWGQGTLVTVSS VL: EIVMTQSPATLSLSPGERATLSCRASQSVSAYLAWYQQKPGQAPRLLIYGASSRATGIPDRFSGSGSGTDFTLTISRLEPEDFAVYYCQQYDNWPYTFGQGTKLEIK
0.138	E35-scFv LQ27S (scFv, V domains shown) VH: QMQLVQSGAEVKKPGASVKVSCKVSGYTLTELSIHWVRQAPGKGLEWMGGFDPEDGETIYAQKFQGRVTMTGDTSTDTAYLELSSLRSEDTALYYCATGRYTSLATTYGFDYWGQGTLVTVSS VL: EIVMTQSPATLSLSPGERATLSCRASSSVSSYLAWYQQKPGQAPRLLIYGASSRATGIPDRFSGSGSGTDFTLTISRLEPEDFAVYYCQQYDNWPYTFGQGTKLEIK
0.128	E35-scFv LQ27L (scFv, V domains shown) VH: QMQLVQSGAEVKKPGASVKVSCKVSGYTLTELSIHWVRQAPGKGLEWMGGFDPEDGETIYAQKFQGRVTMTGDTSTDTAYLELSSLRSEDTALYYCATGRYTSLATTYGFDYWGQGTLVTVSS VL: EIVMTQSPATLSLSPGERATLSCRASLSVSSYLAWYQQKPGQAPRLLIYGASSRATGIPDRFSGSGSGTDFTLTISRLEPEDFAVYYCQQYDNWPYTFGQGTKLEIK
0.06	E35-scFv LS31T (scFv, V domains shown) VH: QMQLVQSGAEVKKPGASVKVSCKVSGYTLTELSIHWVRQAPGKGLEWMGGFDPEDGETIYAQKFQGRVTMTGDTSTDTAYLELSSLRSEDTALYYCATGRYTSLATTYGFDYWGQGTLVTVSS VL: EIVMTQSPATLSLSPGERATLSCRASQSVSTYLAWYQQKPGQAPRLLIYGASSRATGIPDRFSGSGSGTDFTLTISRLEPEDFAVYYCQQYDNWPYTFGQGTKLEIK
0.117	E35-scFv LQ27R (scFv, V domains shown) VH: QMQLVQSGAEVKKPGASVKVSCKVSGYTLTELSIHWVRQAPGKGLEWMGGFDPEDGETIYAQKFQGRVTMTGDTSTDTAYLELSSLRSEDTALYYCATGRYTSLATTYGFDYWGQGTLVTVSS VL: EIVMTQSPATLSLSPGERATLSCRASRSVSSYLAWYQQKPGQAPRLLIYGASSRATGIPDRFSGSGSGTDFTLTISRLEPEDFAVYYCQQYDNWPYTFGQGTKLEIK
